Assay results taken from the supplement of paper PMC9170038.

Test system: MS2 coat protein
Assay: apparent KD of MS2 coat protein; designed switch direction (-1 OFF switch, 1 ON switch): -1; higher = weaker reporter binding
Procedure, shortened: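 Designed RNA switches were transcribed on Illumina chips by stalled E. coli RNA polymerase and titrated with SNAP-549-labelled MS2 coat protein from 0.7 or 1.5 nM, doubling to 3 µM. Step length ran from 0.8–1.5 h at the lowest concentration to 10–20 min at the highest. The apparent KD is the median over clusters for each design, from curve-fitted normalised cluster fluorescence.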

[1] = input ligand: microRNA oligo, concentration not stated
[2] = Eterna round: R95, input ligand: microRNA oligo, concentration not stated
[3] = Eterna round: R95, input ligand: FMN 200 uM
[4] = Eterna round: R95, input ligand: none

Sequence: AAUAAUGUAGGAUAUACAUGAGGAUCACCCAUGUCCCACCCGUUACCUAUGACCAUAUGUAGAAGGACAAAUAA [Exy#4] (Eterna round: R97, puzzle: Exclusion 3)
- apparent KD of MS2 coat protein (input ligand: FMN 200 uM): 0.0567 µM
- apparent KD of MS2 coat protein (input ligand: none): 0.0673 µM

Sequence: AUCCUCACUUUUUAAGCGAACAUGAGGAUCACCCAUGUACAAGCUUUUUGCUCGGCUUAUAAAGGGUUGGAAACAAC [Alacar Attempt 3] (Eterna round: R97, puzzle: Sensor, turn-off variant 1)
- apparent KD of MS2 coat protein (input ligand: FMN 200 uM): 0.0168 µM
- apparent KD of MS2 coat protein (input ligand: none): 0.016 µM

Sequence: ACAAGCUUUUAGUUCGUCUUAUACACUCCUAAUAAGAAAACAUGAGGAUCACCCAUGUAAGAAAUAAGAACUCAUGU [Sesor Array 2 - Jieux - Sensor v3, turn-off variant 2] (Eterna round: R96, puzzle: Sensor v3, turn-off variant 2)
- apparent KD of MS2 coat protein (input ligand: FMN 200 uM): 0.186 µM
- apparent KD of MS2 coat protein [1]: 0.297 µM
- apparent KD of MS2 coat protein (input ligand: none): 0.143 µM

Sequence: UUUUAACAUGAGGAUCACCCAUGUGAGGAUAUCGAAAUUUAUAUUAAUAUUAUUUUAACGAGAAGGCACAUUUU [JMF 47] (puzzle: Exclusion 1)
- apparent KD of MS2 coat protein [2]: 0.0672 µM

Sequence: GCAGGCGACUAGGCUCGUCUUAUUUUGAGAAGAUUGAAAACAUGAGGAUCACCCAUGUGUGUGGGAGAGUUGGAGUG [JR_SV3TOV2_Sub012] (puzzle: Sensor v3, turn-off variant 2)
- apparent KD of MS2 coat protein [3]: 0.268 µM
- apparent KD of MS2 coat protein [2]: 0.346 µM
- apparent KD of MS2 coat protein [4]: 0.475 µM

Sequence: GUAAAUCAUGUAGGAUAUGCGUGGCGAAGCUAUGCAGAAGGACAUGAGGAUCACCCAUGUGCUUGCGUCCGCGUACGGAUGCAA [Mat - Exclusion NG 1 - Mod of JL - D70] (Eterna round: R96, puzzle: Exclusion NG 1)
- apparent KD of MS2 coat protein (input ligand: FMN 200 uM): 0.292 µM
- apparent KD of MS2 coat protein [1]: 0.124 µM
- apparent KD of MS2 coat protein (input ligand: none): 0.237 µM

Sequence: GAUCAUGCAGGAUAUACAUGGAACAUUAAAUCAUGAAUUUCACAUGAGGAUCACCCAUGUAGAAGGGCAUGAUC [Omei Ex2 A16] (Eterna round: R97, puzzle: Exclusion 2)
- apparent KD of MS2 coat protein (input ligand: FMN 200 uM): 0.0325 µM
- apparent KD of MS2 coat protein (input ligand: none): 0.0316 µM

Sequence: GCCAGAGCAGGAUAUUCAAUAUCUCACAUGAGGAUCACCCAUGUCCAUCGAAAGAUGGAGGGAGAAGGGCUCUGGC [Mat - Exclusion 5 - Eli mod - D92] (puzzle: Exclusion 5)
- apparent KD of MS2 coat protein [3]: 0.0373 µM
- apparent KD of MS2 coat protein [2]: 0.0455 µM
- apparent KD of MS2 coat protein [4]: 0.0647 µM

Sequence: GCACGGAUUGUAGGAUAUCUGUGCGAUUAGCUCAGAGAAGGACACAUGAGGAUCACCCAUGUUACCUCAAUUAGCCUUCCGUGC [Eli exng1 - 030] (Eterna round: R96, puzzle: Exclusion NG 1)
- apparent KD of MS2 coat protein (input ligand: FMN 200 uM): 0.0217 µM
- apparent KD of MS2 coat protein [1]: 0.0149 µM
- apparent KD of MS2 coat protein (input ligand: none): 0.02 µM

Sequence: UCAAAGCUAGGAUAUACAUGAGGAUCACCCAUGUUAUCACCCAUCGGGUCUUGCUUUUGUAGAAGGAGCAAUAA [Xeinso] (puzzle: Exclusion 3)
- apparent KD of MS2 coat protein [2]: 0.0256 µM

Sequence: ACAAGCUUUUAGUUCGUCUUAUACACUCCUAAUAAGAAAACAUGAGGAUCACCCAUGUAAGAAAUAAGAACUCAUGU [Sesor Array 2 - Jieux - Sensor v3, turn-off variant 2] (puzzle: Sensor v3, turn-off variant 2)
- apparent KD of MS2 coat protein [3]: 0.151 µM
- apparent KD of MS2 coat protein [2]: 0.396 µM
- apparent KD of MS2 coat protein [4]: 0.209 µM

Sequence: GUGCAACAUGAGGAUCACCCAUGUCAGGAUAUGCGAAUUUCAUCAAAAGAUGAAAUUUGCAGAAGGGACUGUAC [Omei Ex1 A20] (Eterna round: R97, puzzle: Exclusion 1)
- apparent KD of MS2 coat protein (input ligand: FMN 200 uM): 0.0406 µM
- apparent KD of MS2 coat protein (input ligand: none): 0.0489 µM

Sequence: UAAUAUAGUGUGAGGAUAUGCUGGUCCUUGGAUCAGCAGAAGGCACAUGAGGAUCACCCAUGUAGUUUAUUUUA [Mat - Exclusion 4 - JL Mod - D2] (puzzle: Brourd's mod of Exclusion 4)
- apparent KD of MS2 coat protein [3]: 0.141 µM
- apparent KD of MS2 coat protein [2]: 0.0282 µM
- apparent KD of MS2 coat protein [4]: 0.0283 µM

Sequence: UGUACUAUGCGAGCUGACUUGCGUAGUGCAGCAGGUGAAACAUGAGGAUCACCCAUGUCCUCAUUUGCUCGUCUUAU [SL-sv3-2.02 JL mod] (Eterna round: R96, puzzle: Sensor v3, turn-off variant 2)
- apparent KD of MS2 coat protein (input ligand: FMN 200 uM): 0.0452 µM
- apparent KD of MS2 coat protein [1]: 0.399 µM
- apparent KD of MS2 coat protein (input ligand: none): 0.0431 µM

Sequence: GCUCAACAUGAGGAUCACCCAUGUCAGGAUAUGCGAAUUUCAUCAAAAGAUGAAAUUUGCAGAAGGGACUAAGC [Omei Ex1 A32] (Eterna round: R97, puzzle: Exclusion 1)
- apparent KD of MS2 coat protein (input ligand: FMN 200 uM): 0.114 µM
- apparent KD of MS2 coat protein (input ligand: none): 0.0526 µM

Sequence: ACGAGGUCAGGAUAUACGGAGAGAGGGAGUUGGUUAGGGUAACAUGAGGAUCACCCAUGUAGAAGGGACUAGGG [JR_Exclu2_Sub080] (puzzle: Exclusion 2)
- apparent KD of MS2 coat protein [2]: 0.0399 µM

Sequence: AUCAGCUCGUGAGGAUAUACAUGAUAGAUCGAUUAAUUAAUUAAUUUAACAUGAGGAUCACCCAUGUAGAAGGUACGAGCUGAU [ENG2/1-C3] (Eterna round: R96, puzzle: Exclusion NG 2)
- apparent KD of MS2 coat protein [1]: 0.0396 µM

Sequence: AUGGUUCGAUUAGGAUAUUAUAGAUUGAAUAGUAUGAUUUACAUGAGGAUCACCCAUGUUACAUAUAAGAAGGAAUCGAAUCAU [JR_ExcNG2_Sub087] (Eterna round: R96, puzzle: Exclusion NG 2)
- apparent KD of MS2 coat protein [1]: 0.0115 µM

Sequence: UACAUGAGGAUCACCCAUGUUUUGUCGUGUAUGGUAUUUAUCUAGGAUAUCAAUGUAUGUAUUUAUGAGAAGGAGAAUAUUAAU [JMF's solution 43] (Eterna round: R96, puzzle: Exclusion NG 3)
- apparent KD of MS2 coat protein (input ligand: FMN 200 uM): 0.0472 µM
- apparent KD of MS2 coat protein [1]: 0.0274 µM
- apparent KD of MS2 coat protein (input ligand: none): 0.0409 µM

Sequence: UAGUAGCAAGGAUAUACAGAGGAGAGGAAAGCAAGAGGAGGACAUGAGGAUCACCCAUGUAGAAGGUGCAGAGA [JR_Exclu2_Sub020] (puzzle: Exclusion 2)
- apparent KD of MS2 coat protein [3]: 0.0746 µM
- apparent KD of MS2 coat protein [2]: 0.0739 µM
- apparent KD of MS2 coat protein [4]: 0.0666 µM

Sequence: UAGAAACAUGAGGAUCACCCAUGUGAGGAUAUGAAAAAGAAAAGAAAAGAAAGAAGAAUCAGAAGGCACAAAGA [salish99-ex1_r3_083] (puzzle: Exclusion 1)
- apparent KD of MS2 coat protein [3]: 0.0336 µM
- apparent KD of MS2 coat protein [2]: 0.0259 µM
- apparent KD of MS2 coat protein [4]: 0.0236 µM

Sequence: CAUCACUGUGUCAGGAUAUCAUUUGGACGUCUAAGUGAGAAGGGACAUGAGGAUCACCCAUGUGGAGCUGGCCA [Eternabot (L1) Solution 63] (Eterna round: R97, puzzle: Brourd's mod of Exclusion 4)
- apparent KD of MS2 coat protein (input ligand: FMN 200 uM): 0.0735 µM
- apparent KD of MS2 coat protein (input ligand: none): 0.0418 µM

Sequence: AAUUUACAUGAGGAUCACCCAUGUGAGGAUAUGGUUUCGCUGGCCGUAGCCAGUGGAACCAGAAGGCGCGUGAU [Mat - Exclusion 1 - JL Mod - D28] (Eterna round: R97, puzzle: Exclusion 1)
- apparent KD of MS2 coat protein (input ligand: FMN 200 uM): 0.195 µM
- apparent KD of MS2 coat protein (input ligand: none): 0.0843 µM

Sequence: ACCAUGUAAGGAUAUCUCGUACAAAGACGCAACUCGUCCAGAGAGAAGGUACAUGAGGAUCACCCAUGUAGACA [Eternabot (Original) Solution 39] (Eterna round: R97, puzzle: Exclusion 4)
- apparent KD of MS2 coat protein (input ligand: FMN 200 uM): 0.152 µM
- apparent KD of MS2 coat protein (input ligand: none): 0.0335 µM

Sequence: AAGAGUGCAGGAUAUACUUGGUAGGGCGGGUGGAUGAAGUGACAUGAGGAUCACCCAUGUAGAAGGGCAGAGAG [JR_Exclu2_Sub055] (puzzle: Exclusion 2)
- apparent KD of MS2 coat protein [3]: 0.0246 µM
- apparent KD of MS2 coat protein [2]: 0.0214 µM
- apparent KD of MS2 coat protein [4]: 0.0257 µM
